According to PMC7971878:

Experiments:
[1] = biological target: CSFV sE2 (soluble E2 protein, 693-1020aa) with (His)6 tag (classical swine fever virus); assay: SPR; Biacore […] (20 μg/ml) […]; 20 mM Hepes, 150 mM NaCl, 0.005% Tween 20, pH 7.4, […]; 1:1 binding model
[2] = biological target: CSFV sE2 (soluble E2 protein, 693-1020aa) with (His)6 tag (classical swine fever virus); assay: SPR; Biacore T100; […] (20 μg/ml) […]; 20 mM Hepes, 150 mM NaCl, 0.005% Tween 20, pH 7.4, […]; 1:1 binding model

Substance “soluble metalloproteinase domain of pig ADAM17 (sMP) with (His)6 tag (from UniProt O77636 18-477) (domain or fragment)” has a Kd [1] of 3.2 µM and a Kd [2] of 0.1 µM.
